Data published in paper PMC7058304 (PLoS ONE, 2020).

B1: mAb19 (analog of sasanlimab) (antibody, V domains shown)
VH: QVQLVQSGAEVKKPGASVKVSCKASGYTFTSYWINWVRQAPGQGLEWMGNIYPGSSLTNYNEKFKNRVTMTRDTSTSTVYMELSSLRSEDTAVYYCARLSTGTFAYWGQGTLVTVSS
VL: DIVMTQSPDSLAVSLGERATINCKSSQSLWDSGNQKNFLTWYQQKPGQPPKLLIYWTSYRESGVPDRFSGSGSGTDFTLTISSLQAEDVAVYYCQNDYFYPHTFGGGTKVEIK
notes: VH; IgG4 heavy-chain constant region with stabilizing 226CPPC hinge; VL; IgG4 analog; source: HEK293 suspension cells, cotransfected, purified (Protein A)
B2: mAb21 (analog of sintilimab) (antibody, V domains shown)
VH: QVQLVQSGAEVKKPGSSVKVSCKASGGTFSSYAISWVRQAPGQGLEWMGLIIPMFDTAGYAQKFQGRVAITVDESTSTAYMELSSLRSEDTAVYYCARAEHSSTGTFDYWGQGTLVTVSS
VL: DIQMTQSPSSVSASVGDRVTITCRASQGISSWLAWYQQKPGKAPKLLISAASSLQSGVPSRFSGSGSGTDFTLTISSLQPEDFATYYCQQANHLPFTFGGGTKVEIK
notes: as for B1
B3: mAb17 (analog of camrelizumab) (antibody, V domains shown)
VH: EVQLVESGGGLVQPGGSLRLSCAASGFTFSSYMMSWVRQAPGKGLEWVATISGGGANTYYPDSVKGRFTISRDNAKNSLYLQMNSLRAEDTAVYYCARQLYYFDYWGQGTTVTVSS
VL: DIQMTQSPSSLSASVGDRVTITCLASQTIGTWLTWYQQKPGKAPKLLIYTATSLADGVPSRFSGSGSGTDFTLTISSLQPEDFATYYCQQVYSIPWTFGGGTKVEIK
notes: as for B1
B4: mAb04 (analog of retifanlimab) (antibody, V domains shown)
VH: QVQLVQSGAEVKKPGASVKVSCKASGYSFTSYWMNWVRQAPGQGLEWIGVIHPSDSETWLDQKFKDRVTITVDKSTSTAYMELSSLRSEDTAVYYCAREHYGTSPFAYWGQGTLVTVSS
VL: EIVLTQSPATLSLSPGERATLSCRASESVDNYGMSFMNWFQQKPGQPPKLLIHAASNQGSGVPSRFSGSGSGTDFTLTISSLEPEDFAVYFCQQSKEVPYTFGGGTKVEIK
notes: as for B1
B5: mAb03 (antibody, V domains shown)
VH: QVQLQESGPGLVKPSETLSLTCTVSGFSLTSYGVHWIRQPPGKGLEWIGVIYADGSTNYNPSLKSRVTISKDTSKNQVSLKLSSVTAADTAVYYCARAYGNYWYIDVWGQGTTVTVSS
VL: DIVMTQSPDSLAVSLGERATINCKSSESVSNDVAWYQQKPGQPPKLLINYAFHRFTGVPDRFSGSGYGTDFTLTISSLQAEDVAVYYCHQAYSSPYTFGQGTKLEIK
notes: IgG4; also called analog of tislelizumab; tisle; source: HEK293 suspension cells, cotransfected, purified (Protein A)
B6: mAb16 (antibody, V domains shown)
VH: EVQLLESGGGLVQPGGSLRLSCAASGFTFSSYDMSWVRQAPGKGLEWVSTISGGGSYTYYQDSVKGRFTISRDNSKNTLYLQMNSLRAEDTAVYYCASPYYAMDYWGQGTTVTVSS
VL: DIQLTQSPSFLSAYVGDRVTITCKASQDVGTAVAWYQQKPGKAPKLLIYWASTLHTGVPSRFSGSGSGTEFTLTISSLQPEDFATYYCQHYSSYPWTFGQGTKLEIK
notes: IgG4; also called analog of dostarlimab; dostar; source: HEK293 suspension cells, cotransfected, purified (Protein A)
B7: mAb17 (antibody, V domains shown)
VH: EVQLVESGGGLVQPGGSLRLSCAASGFTFSSYMMSWVRQAPGKGLEWVATISGGGANTYYPDSVKGRFTISRDNAKNSLYLQMNSLRAEDTAVYYCARQLYYFDYWGQGTTVTVSS
VL: DIQMTQSPSSLSASVGDRVTITCLASQTIGTWLTWYQQKPGKAPKLLIYTATSLADGVPSRFSGSGSGTDFTLTISSLQPEDFATYYCQQVYSIPWTFGGGTKVEIK
notes: IgG4; also called analog of camrelizumab; camre; source: HEK293 suspension cells, cotransfected, purified (Protein A)
B8: mAb23 (antibody, V domains shown)
VH: EVQLLESGGVLVQPGGSLRLSCAASGFTFSNFGMTWVRQAPGKGLEWVSGISGGGRDTYFADSVKGRFTISRDNSKNTLYLQMNSLKGEDTAVYYCVKWGNIYFDYWGQGTLVTVSS
VL: DIQMTQSPSSLSASVGDSITITCRASLSINTFLNWYQQKPGKAPNLLIYAASSLHGGVPSRFSGSGSGTDFTLTIRTLQPEDFATYYCQQSSNTPFTFGPGTVVDFR
notes: IgG4; also called analog of cemiplimab; cemip; source: HEK293 suspension cells, cotransfected, purified (Protein A)
B9: mAb04 (antibody, V domains shown)
VH: QVQLVQSGAEVKKPGASVKVSCKASGYSFTSYWMNWVRQAPGQGLEWIGVIHPSDSETWLDQKFKDRVTITVDKSTSTAYMELSSLRSEDTAVYYCAREHYGTSPFAYWGQGTLVTVSS
VL: EIVLTQSPATLSLSPGERATLSCRASESVDNYGMSFMNWFQQKPGQPPKLLIHAASNQGSGVPSRFSGSGSGTDFTLTISSLEPEDFAVYFCQQSKEVPYTFGGGTKVEIK
notes: IgG4; also called analog of retifanlimab; retifan; source: HEK293 suspension cells, cotransfected, purified (Protein A)

Tests used:
Conditions in all cases: both partners purified
[1] = molecular target: T1, Recombinant purified human PD-1 protein, residues Leu25-Thr168, with a C-terminal 6-His tag (human, UniProt Q15116); assay: SPR; Biacore 8K, flat chips (average of C1 and CMD-P); mAbs captured on goat anti-human IgG Fc; PD-1 His-tagged monomer analyte 0.4-100 nM; 25 C; HBS-EP+ pH 7.4; 1:1 Langmuir fit with mass transport; apparent
T1 construct: programmed cell death protein 1 (PD-1), human, residues Leu25-Thr168; monomer; the results call it wild-type or full length PD-1 against the P35-Q167 fragment; also called PD-1-His; PD-1 His-tagged monomer; source: bought: R&D Systems; not shown: His6, C-terminal, kept
T1 sequence (Q15116 25-168): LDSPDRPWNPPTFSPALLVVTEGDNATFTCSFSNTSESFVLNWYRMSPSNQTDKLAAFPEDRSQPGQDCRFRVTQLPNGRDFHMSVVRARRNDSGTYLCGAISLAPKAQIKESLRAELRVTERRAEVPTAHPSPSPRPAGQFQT

[2] = molecular target: T1, Recombinant purified human PD-1 …; assay: SPR; Biacore 8K, 3D-hydrogel chips (average of CM5 and CMD-200M); mAbs captured on goat anti-human IgG Fc; PD-1 His-tagged monomer analyte 0.4-100 nM; 25 C; HBS-EP+ pH 7.4; 1:1 Langmuir fit with mass transport; apparent
[3] = molecular target: T2, biotinylated His-tagged PD-1 (Homo sapiens, UniProt Q15116, biotin); assay: MSD solution equilibrium titration; 100 pM biotinylated His-tagged PD-1 titrated with mAb (top 100, 50 or 10 nM binding sites), 18 h at room temperature; free antigen captured on mAb-coated MSD plates; relative KD
T2 construct: PD-1, His-tagged, biotinylated, used in the MSD experiments; probably the R&D Systems Leu25-Thr168 protein after biotinylation
T2 sequence (Q15116 whole entry, looked up, tested part not stated): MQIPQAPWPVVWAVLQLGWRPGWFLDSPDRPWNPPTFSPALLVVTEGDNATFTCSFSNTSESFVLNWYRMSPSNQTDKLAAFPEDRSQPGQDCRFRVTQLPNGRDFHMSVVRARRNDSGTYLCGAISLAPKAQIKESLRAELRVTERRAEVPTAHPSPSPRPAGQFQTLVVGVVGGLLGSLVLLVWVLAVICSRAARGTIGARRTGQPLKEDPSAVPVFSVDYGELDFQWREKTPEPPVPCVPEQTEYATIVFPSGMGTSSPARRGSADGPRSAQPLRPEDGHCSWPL

[4] = molecular target: T1, Recombinant purified human PD-1 …; assay: SPR; Carterra LSA, CMD-P (flat) chip; mAbs captured on goat anti-human IgG Fc in a 384-spot array; PD-1-His analyte 0.5-1000 nM, 5 min association, 20 min dissociation; HBS-ET + 0.5 mg/ml BSA; 1:1 Langmuir fit; mean of spots; apparent
[5] = molecular target: T3, Recombinant purified human PD-1 protein, residues Leu25-Thr168, with a C-terminal 6-His tag (Homo sapiens, UniProt Q15116); assay: SPR; Biacore 8K, CMD-P chip (flat); mAb captured on amine-coupled goat anti-human IgG Fc, PD-1-His monomer as analyte (100 nM top, 3-fold dilutions), 1200 s dissociation; 25 C, HBS-EP+ pH 7.4; 1:1 Langmuir fit, apparent constants
T3 construct: programmed cell death protein 1 (PD-1), human, residues Leu25-Thr168; also called programmed cell death protein 1; PD-1-His monomer; source: bought: R&D Systems (catalog# 8986-PD, lot# DDJM0417041)
T3 sequence (Q15116 25-168): as the sequence (Q15116 25-168) above

[6] = molecular target: T3, Recombinant purified human PD-1 …; assay: SPR; Biacore 8K, CM5 chip (3D-hydrogel); mAb captured on amine-coupled goat anti-human IgG Fc, PD-1-His monomer as analyte (100 nM top, 3-fold dilutions), 1200 s dissociation; 25 C, HBS-EP+ pH 7.4; 1:1 Langmuir fit, apparent constants
[7] = molecular target: T3, Recombinant purified human PD-1 …; assay: SPR; Biacore 8K, CMD-200M chip (3D-hydrogel); mAb captured on amine-coupled goat anti-human IgG Fc, PD-1-His monomer as analyte (100 nM top, 3-fold dilutions), 1200 s dissociation; 25 C, HBS-EP+ pH 7.4; 1:1 Langmuir fit, apparent constants
[8] = molecular target: T3, Recombinant purified human PD-1 …; assay: SPR; Biacore 8K, C1 chip (flat); mAb captured on amine-coupled goat anti-human IgG Fc, PD-1-His monomer as analyte (100 nM top, 3-fold dilutions), 1200 s dissociation; 25 C, HBS-EP+ pH 7.4; 1:1 Langmuir fit, apparent constants; 8 mAbs measured in two independent experiments
[9] = molecular target: T3, Recombinant purified human PD-1 …; assay: as above; remark: listed apart in the source

Binder	Kd [1] [nM]	Kd [2] [nM]	Kd [3] [nM]	Kd [4] [nM]	koff [4] [s⁻¹]	kon [4] [M⁻¹ s⁻¹]	Kd [5] [nM]	koff [5] [s⁻¹]	kon [5] [M⁻¹ s⁻¹]	Kd [6] [nM]	koff [6] [s⁻¹]	kon [6] [M⁻¹ s⁻¹]	Kd [7] [nM]	koff [7] [s⁻¹]	kon [7] [M⁻¹ s⁻¹]	Kd [9] [nM]	koff [9] [s⁻¹]	kon [9] [M⁻¹ s⁻¹]	further results
B1	< 0.13	< 0.3	0.02	< 0.17	< 4.3e-05	250000													
B2	< 0.12	< 0.21	0.028	< 0.13	< 4.3e-05	330000													
B3	2.4	4.5	0.47	4	0.00073	180000													
B4	0.35	0.65	0.056	0.7	0.00039	580000													
B5							0.134	5.77e-05	432000	0.277	6.03e-05	218000	0.24	6.16e-05	257000	0.119	7.54e-05	636000	Kd [8]: 0.128 nM; koff [8]: 8.72e-05 s⁻¹; kon [8]: 682000 M⁻¹ s⁻¹
B6							0.965	0.000269	279000	1.77	0.000262	148000	1.63	0.000287	176000	0.784	0.000297	379000	
B7							2.58	0.000497	192000	4.99	0.000456	91400	4.09	0.000503	123000	2.15	0.000526	245000	
B8							0.897	0.000164	183000	1.75	0.000157	90100	2.01	0.000212	105000	0.752	0.000188	250000	
B9							0.387	0.000235	608000	0.717	0.000235	328000	0.582	0.000253	435000	0.307	0.000269	877000	Kd [8]: 0.297 nM; koff [8]: 0.000277 s⁻¹; kon [8]: 933000 M⁻¹ s⁻¹
